The subject of one test is MCF-7. As to the kind of experiment: Flow cytometry (FACS) of phage binding to MCF-7 cells. The test is classed as cell-based, human. The conditions noted are these: EGFR overexpressing vs EGFR negative cells. The protocol:
(§1) To evaluate whether the selected peptides from phage display can bind to tumor cells that overexpress EGFR, A431 cells (epidermoid cancer) or an EGFR negative tumor cells, MCF-7 (breast carcinoma) were tested in a flow cytometry assay using fluorescence detection (FACS). For P145, PP146 and their control phage, 2.5×10^5 A431 cells were resuspended in 25 μl of flow staining buffer (dPBS with 1% BSA, 0.09% sodium azide) and incubated with 25 μl of phage clones for 1 hour at 4° C.
(§2) A431 cells (epidermoid cancer) which overexpress EGFR and EGFR-negative tumor cells, MCF-7 (breast carcinoma) were tested in a flow cytometry assay. Tumor cells (A431 and MCF-7) were harvested with 0.25% tyrpsin-EDTA and washed twice with FACS staining buffer (dPBS with 1% BSA, 0.09% sodium azide). […] After binding at 4° C., cells were washed twice with FACS staining buffer to remove unbound phage and then incubated with 0.5 μg of mouse anti-M13 monoclonal antibody conjugated to FITC (Fitzgerald Industries International, Inc. Concord, Mass.) for 1 hour at 4° C. Mouse anti-M13-FITC incubated with cells without phage was used as background binding. Cells were washed twice with FACS staining buffer to remove unbound detection antibody.

Test [1] deals with A431 cells. The test can be described thus: Flow cytometry (FACS) of phage binding to A431 cells. The test is classed as cell-based, human. The protocol:
as §1, §2
For orientation: In flow cytometry, cells or beads pass a laser one at a time.

A further test has as its target T1, sEGFR-His6 (Homo sapiens, UniProt P00533).
T1 construct: made in house; host or cells: HEK293E (transient, secreted)
The test can be described thus: Phage ELISA on coated sEGFR-His6. The conditions noted are these: P190 phage, construct sEGFR-His6. It counts as binding. The protocol:
(§3) The plates were held overnight at room temperature, washed twice with TBST (0.5M Tris Base, 9% NaCl, 0.05% tween, pH 7.6), and loaded with 200 μL per well of Starting Block (Pierce). […] The plates were held at room temperature for 1.5 hours for blocking. Plates were then washed twice with TBST and phage were added. The phage solutions were crude phage supernatant from overnight cultures diluted four-fold with Starting Block. After a one-hour incubation, the plates were washed thrice with TBST and 100 μL of a 1:5000 dilution of phage binding antibody conjugate (α-M13-HRP) was added to the wells. EGF was added if applicable. After a one-hour incubation the plates were washed five times with TBST, 100 μL of POD (BM Chemiluminescence ELISA substrate; Roche Applied Science) was added, and chemiluminescene recorded.
Background: ELISA stands for enzyme-linked immunosorbent assay.

A further test has as its target Control-MMB (Homo sapiens, UniProt P01857). The test can be described thus: Phage ELISA on Control-MMB. The test is classed as binding. The protocol: (§4) The protein solution was removed and wells were rinsed twice with Tris-Buffered Saline containing 0.05% Tween-20 (TBS-T) using a plate washer (Embla). The wells were blocked with Starting Block in TBS for 1 hr at room temperature and rinsed twice with TBS-T. An equal volume of phage supernatant and Starting Block in TBS were incubated in the wells for 1 hr at room temperature, and the wells were rinsed five times with TBS-T. Anti-M13/horseradish peroxidase conjugate (Amersham), diluted 1:5000 in Starting Block in TBS, was added into the wells and incubated for 1 hour at room temperature, and then the wells were rinsed five times with TBS-T. Finally, chemiluminescent peroxidase substrate (Roche) was added to the wells, and chemiluminescence was measured on a Tecan plate reader.
The plates were held overnight at room temperature, washed twice with TBST (0.5M Tris Base, 9% NaCl, 0.05% tween, pH 7.6), and loaded with 200 μL per well of Starting Block (Pierce). […] The plates were held at room temperature for 1.5 hours for blocking. Plates were then washed twice with TBST and phage were added. […] After a one-hour incubation the plates were washed five times with TBST, 100 μL of POD (BM Chemiluminescence ELISA substrate; Roche Applied Science) was added, and chemiluminescene recorded.

Another test deals with T2, EGF + sEGFR-MMB Complex (Homo sapiens, UniProt P00533).
T2 construct: made in house
The test can be described thus: Phage ELISA on complex of EGF and sEGFR-MMB. It counts as binding. The protocol: as §3

For test [2], the target named is T3, sEGFR-MMB (Homo sapiens, UniProt P00533).
T3 construct: made in house; host or cells: HEK 293E
The test can be described thus: Phage ELISA on coated sEGFR-MMB. It counts as binding. The settings on record: P190 phage, construct SEGFR-MMB. The protocol: as §4
Phage were amplified in XL-1 Blue host cells and purified by precipitation with 6% polyethylene glycol-8000/0.5 M sodium chloride. The precipitated phage were resuspended in phosphate-buffered saline in a volume that was 1/100th the original culture volume. For competitive ELISA experiments, plates were prepared by coating wells with sEGFR-MMB or the Control-MMB followed by blocking as described above. […] The binding reaction was incubated for 1 hr at room temperature, and then bound phage were detected with anti-M13/HRP as above. […] Bound phage were washed and detected with anti-M13/HRP as described above. […]

In test [3] the test system is A431 cells. The test can be described thus: FACS of P190-MMB constructs or cetuximab on A431 cells. It counts as cell-based, human.
A further test concerns EGFR. As to the kind of experiment: FACE (Fast Activated Cell-based ELISA) of EGFR phosphorylation.
For test [4], the target named is T3, sEGFR-MMB. The test can be described thus: P190-MMB constructs, solid phase binding (BIAcore, ELISA) to immobilized sEGFR-MMB. An excerpt: In contrast, 190-MMB as the 4316 construct, binds EGFR and the presence of excess EGF promotes its binding.
For orientation: In SPR one partner is held on a chip, and binding of the other changes the refractive index at the surface.

In the case of “SGCLDALWQCVY (Random peptide) [Peptide P174]”, the “binding to A431 compared to MCF-7” value in the test on MCF-7 is reported as “greater to A431 than to MCF-7”. Also, the “binding to A431 relative to positive control phage displaying EGF” value in the test with A431 cells [1] is listed as “comparable”.
For the molecule VLCHRYYHPICYT [Peptide P145], in the test on MCF-7, the “binding to A431 compared to MCF-7” value is “greater binding to A431 than MCF-7 cells”. Also, in the test with A431 cells [1], the “binding to A431 relative to positive control phage displaying EGF” value was “weaker”.
In the case of “KTCVSTTFDLWFVCFA (Random peptide) [Peptide P176]”, in the test with A431 cells [1], the “binding to A431 relative to positive control phage displaying EGF” value is reported as “comparable”.
DPCTWEVWGRECLQ [Peptide P190]: the “binding to A431 compared to MCF-7” value in the test with MCF-7 is “bound more effectively to A431 cells”. The “Relative Signal” value came to 6 with sEGFR-His6; 29408 ± 259 in the test with EGF + sEGFR-MMB Complex (P190 phage, construct SEGFR-MMB + EGF); 3937 ± 335 with sEGFR-MMB [2]. In addition, the “binding to Control-MMB” value with Control-MMB is on record as “fails to bind”. In the test on A431 cells [1], the “binding to A431 cells in the presence of EGF” value was “increased”. Besides, in the test with A431 cells [1], the “binding to A431 cells in the presence of EGF and cetuximab” value is on record as “decreases”. Moreover, the “binding to A431 tumor cells” value in the test on A431 cells [1] (anti-phage-FITC, 4° C.) is “bind”. Also, the “binding to dimeric EGFR in the presence of EGF or TGF-a” value with EGF + sEGFR-MMB Complex (phage ELISA) is on record as “increased”.
In the case of “TLCRSFFHPLCYA (Random peptide) [Peptide P146]”, the “binding to A431 relative to positive control phage displaying EGF” value in the test with A431 cells [1] is reported as “weaker”.

B1: 4315: P190-MMB construct, Flex GGGGS, n 2 (protein)
chain: GGDPCTWEVWGRECLQGGGGSGGGGSCPPCPAPEAAGGPSVFLFPPKPKDTLMISRTPEVTCVVVDVSQEDPEVQFNWYVDGVEVHNAKTKPREEQFNSTYRVVSVLTVLHQDWLNGKEYKCKVSNKGLPSSIEKTISKAKGQPREPQVYTLPPSQEEMTKNQVSLTCLVKGFYPSDIAVEWESNGQPENNYKTTPPVLDSDGSFFLYSRLTVDKSRWQEGNVFSCSVMHEALHNHYTQKSLSLSLGK
With B1, in the test with A431 cells [3], the “binding to A431” value is given as “little binding”.

B2: 4316: P190-MMB construct with the longest linker, Flex GGGGS, n 4 (protein)
chain: GGDPCTWEVWGRECLQGGGGSGGGGSGGGGSGGGGSCPPCPAPEAAGGPSVFLFPPKPKDTLMISRTPEVTCVVVDVSQEDPEVQFNWYVDGVEVHNAKTKPREEQFNSTYRVVSVLTVLHQDWLNGKEYKCKVSNKGLPSSIEKTISKAKGQPREPQVYTLPPSQEEMTKNQVSLTCLVKGFYPSDIAVEWESNGQPENNYKTTPPVLDSDGSFFLYSRLTVDKSRWQEGNVFSCSVMHEALHNHYTQKSLSLSLGK
On to B2, for which the “interference with EGF activation of EGFR” value in the test with EGFR is “nor interfere with EGF activation of EGFR”. Besides, in the test with EGFR (absence of EGF), the “EGFR phosphorylation (receptor activation)” value is given as “did not induce EGFR phosphorylation”. Also, the on-rate entry with sEGFR-MMB [4] is given as “much more pronounced on-rate than the other constructs”. Moreover, the “binding rank among linker variants” value in the test with sEGFR-MMB [4] (ELISA and FACS) is listed as “best binder”. In addition, the “effect of EGF on binding to A431” value with A431 cells [3] (excess rhEGF) is “enhanced binding”.

Source of the values: patent US8834920B2, “Liposome composition for targeting egfr receptor” (Alza Corporation, priority 2006, dated 2014).
